{"source": "patent US8329186B2", "about": "“Treatment of inflammation using BST2 inhibitor” (Isu Abxis Co., Ltd, priority 2004, dated 2012)", "molecules": {"B1": {"name": "2-15: anti-Bst2/Damp1 monoclonal antibody; heavy chain variable SEQ ID NO:77, kappa SEQ ID NO:88 (antibody, V domains shown)", "VH": "MAQSVKESEGRLVTPGTPLTLTCTVSGFSLSNSGMSWVRQAPGKGLEWIGLINSYGTTYYASWAKGRFTISKTSTTVELKITSPTTEDTATYFCARGAGSSYGLWGQGTLVTVSSAS", "VL": "QAAELVMTQTPSSTSTAVGDTVTIKCQASQSIGSNLAWYQQKPGQPPKILIYSASNLASGVPSRFKGSGSGTEYTLTISGVQREDAATYYCLGSDSSWDTVFGGGTELEILRTV", "modifications": "2-15 heavy chain variable region amino acid sequence; 2-15 kappa chain variable region amino acid sequence"}, "B2": {"name": "PEG-conjugated Bst2 decoy: aldehyde PEG-conjugated human Bst2 decoy sample (conjugate, UniProt Q10589 49-161, looked up)", "extracellular domain": "NSEACRDGLRAVMECRNVTHLLQQELTEAQKGFQDVEAQAATCNHTVMALMASLDAEKAQGQKKVEELEGEITTLNHKLQDASAEVERLRRENQVLSVRIADKKYYPSSQDSS", "modifications": "extracellular domain aldehyde PEG conjugate", "notes": "aldehyde PEG-conjugated human Bst2 decoy sample"}, "B3": {"name": "mouse Damp1 decoy: soluble Damp1 protein fragment having the amino acid sequence of SEQ ID NO:2 (protein, listed as Mus musculus)", "chain": "FAVTANSVACRDGLRAQAECRNTTHLLQRQLTRTQDSLLQAETQANSCNLTVVTLQESLEKKVSQALEQQARIKELENEVTKLNQELENLRIQKETSSTVQVNS"}, "B4": {"name": "Bst2 decoy-IgG Fc fusion proteins: recombinant chimeric fusion proteins of the extracellular domain of human Bst2 and the Fc region of human IgG (protein)", "chain": "NSEACRDGLRAVMECRNVTHLLQQELTEAQKGFQDVEAQAATCNHTVMALMASLDAEKAQGQKKVEELEGEITTLNHKLQDASAEVERLRRENQVLSVRIADKKYYPSSQD", "modifications": "left off: a dimerising Fc or GST"}}, "key": {"[1]": {"tested_on": "HUVECs and U937 cells", "experiment": "Heterotypic aggregation/adhesion between IFN-γ-treated HUVECs and U937 cells", "format": "cell-based, human", "method": "HUVECs (1−5×10^4 cells/ml) were seeded onto a 12-well cell culture plate. After one day, the medium was exchanged with a low-serum medium containing 0.5% FBS, and the cells were pretreated with interferon-gamma (IFN-γ; Calbiochem) in a final concentration 10 ng/ml for 24 hrs. Then, the pretreated HUVECs were co-cultured with U937 cells (2×10^6 cells/ml, 500 μl) at 37° C. for 4 hrs. The co-culture was washed with phosphate buffer three or four times, and the remaining cells were fixed with 4% paraformaldehyde and microscopically observed.\nHUVECs were transfected with an expression vector for Bst2, treated with or without IFN-γ and then transfected with Bst2 siRNA. These cells were assessed for U937 cell adhesion.\n(§1) HUVECs were cultured in 12-well plates with or without transfection of Bst2 siRNA or control siRNA for 6 hr, then treated with or without IFNγ for 24 hr. In some experiments, cells were treated with crude media containing Bst2 decoy or mouse anti-human ICAM1 antibodies. After a wash with PBS (phosphate buffered saline), U937 cells were resuspended in serum free medium at 2×10^6 cells/ml. Assays were initiated by the addition of 200 ul U937 cells to HUVEC for a final volume of 1 ml. After 4 hr at 37° C., unbound U937 cells were removed by washing plates three times with PBS. Bound cells were fixed by the addition of 4% paraformaldehyde in PBS, and the bound cells were counted under microscopy in different fields. All statistical analyses were performed in Excel and statistical significance were evaluated with Student's t test. In some experiments, RNA samples were obtained from HUVECs after treatment with IFNγ and/or siRNAs, and real-time polymerase chain reaction (RT-PCR) analyses were performed."}, "[2]": {"tested_on": "ICAM1 expression or Bst2 expression", "experiment": "RT-PCR of Bst2 and ICAM1 expression in IFNγ-treated HUVEC after siRNA", "format": "cell-based, human", "method": "as §1\nRT-PCR analyses were performed."}, "[3]": {"tested_on": "mouse model of asthma", "experiment": "Ovalbumin-induced mouse model of asthma: infiltrating cells in bronchoalveolar lavage", "format": "in vivo", "details": "ovalbumin-sensitized mice", "method": "(§2) A mouse model of asthma was prepared by sensitizing mice (C57B6, 8 weeks) with ovalbumin. In detail, mice were initially sensitized for five continuous days by intranasal injection of ovalbumin. After three weeks, mice were intranasally sensitized again with ovalbumin for five continuous days. One week after the secondary sensitization, mice were challenged intranasally with ovalbumin three times every 24 hrs to induce asthma. Herein, a Bst2 decoy was intravenously injected into mice 30 min before sensitization with ovalbumin, and was injected into mice 30 min before the first sensitization and the last injection of ovalbumin. Three days after the last injection, serum samples, lung tissues, and the like were collected from mice.\nA mouse model of asthma was prepared as described in Example 8-1.\nThe effect of Bst2 decoy-Fc fusions on immune cell infiltration was assessed as described in Example 8-2. When ovalbumin-sensitized mice were treated with a Bst2 decoy, the total number of infiltrating cells was decreased and, especially, the number of neutrophils, eosinophils and lymphocytes except for macrophage was decreased in bronchoalveolar lavage (BAL) (FIG. 27).\nA mouse model of asthma was prepared as described in Example 8-1. The effect of anti-Bst2/Damp1 antibodies on immune cell infiltration was assessed as described in Example 8-2. […]"}, "[4]": {"experiment": "In vivo stability of PEG-conjugated Bst2 decoy in rats (ELISA of blood samples)", "parameters": "species or system rat", "details": "tail vein, 0.4 to 2 mg/kg, compared to Bst2 decoy", "method": "The PEG-conjugated forms of Bst2 decoy, prepared in Example 11-1, were injected into the tail vein of 7 week-old male Sprague-Dawley rats in a dose of 0.4 to 2 mg/kg. A negative control group was injected with an equal dose of physiological saline. Also, an equal dose of Bst2 decoy protein was used as a positive control. Blood samples were collected before drug administration, and 2 min, 5 min, 10 min, 30 min, 1 hr, 2 hrs, 6 hrs, 12 hrs and 24 hrs after drug administration from the jugular vein using a cannula. The collected blood samples were analyzed by ELISA. A 96-well plate was coated with an anti-Bst2 decoy antibody (100 ng/ml in PBS) at 4° C. for 8 hrs or longer, and was blocked with albumin in PBS at 37° C. for 2 hrs. The plate was reacted with a proper dilution of rat serum or Bst2 decoy (standard sample) at 37° C. for 2 hrs. The plate was then reacted with a monoclonal antibody (mAb conjugated with horseradish peroxidase, Roche Inc.) recognizing the histidine tag added to the C-terminus of Bst2 decoy at 37° C. for 2 hrs. After being well washed, the plate was treated with a substance of peroxidase, and absorbance was measured at 450 nm. Quantitation of the PEG-conjugated Bst2 decoys present in blood was performed using the standard samples (FIG. 18). […]"}, "[5]": {"tested_on": "IL-4, IL-5 and IL-13", "experiment": "Ovalbumin-induced mouse model of asthma: cytokines in lung tissue (immunoblot)", "format": "in vivo", "details": "ovalbumin-sensitized asthmatic mice", "method": "as §2\nWhen a Bst2 or Damp1 decoy was injected into a mouse model of asthma which was induced by sensitization and challenge with ovalbumin, expression levels of cytokines (interleukin-4 (IL-4), interleukin-5 (IL-5) and interleukin-13 (IL-13)) were measured as follows. […] The bound primary antibodies were detected with a HRP-conjugated secondary antibody (anti-rabbit HRP-conjugated IgG) using ECL reagent.\nExpression of 11-4, IL-5 and IL-13 was measured in the murine asthma model as described in Example 8-3 after injection with Bst2 decoy or Bst2 decoy Fc fusion proteins."}, "[6]": {"tested_on": "U937 cells", "experiment": "Competitive inhibition of U937 cell binding to Bst2 decoy coated plates", "parameters": "species or system human", "details": "cells pre-incubated with fusion proteins 2 hrs", "method": "Competitive inhibition of Fc fusion proteins in the binding between BST2 decoy and cells was measured as follows. Flat-bottomed 96-well plates were coated with Bst2 decoy (50 ug/ml) with sodium bicarbonate (100 mM, pH 9.5) for 2 hrs at 37° C. The plates were washed with PBS (pH 7.4) and incubated with 1% bovine serum albumin (BSA) at 25° C. After a rinse with PBS (pH 7.4) containing 1 mM CaCl2 and 0.5 mM MgCl2, U937 cells (1×10^6/ml) were added to each Bst2-coated well. Before the addition, cells were pre-incubated with BST2 decoy-Fc fusion proteins for 2 hrs at 37° C. Bound cells were counted as described in Example 20."}}, "note": "d = 2'-deoxy (DNA); r = 2'-OH (RNA)"}
{"molecule": "Bst2 siRNA: siRNA against Bst2 mRNA target sequence SEQ ID NO:5; sense SEQ ID NO:6, antisense SEQ ID NO:7 (sense UUGUCCGCGAUUCUCACGCTT; antisense GCGUGAGAAUCGCGGACAATT; sugars from the 5' end r19 d2, backbone not given here)", "values": [{"measurement": "U937 cell adhesion to HUVECs", "setting": "[1]; HUVECs transfected with Bst2 expression vector, with or without IFN-γ", "result": "decreased U937 cell adhesion"}, {"measurement": "cell adhesion between untransfected HUVEC and U937 cells", "setting": "[1]; untransfected HUVEC, IFNγ stimulation", "result": "inhibitory effect"}, {"measurement": "ICAM1 expression", "setting": "[2]", "result": "does not affect"}]}
{"molecule": "B1", "values": [{"measurement": "number of infiltrating cells in bronchoalveolar lavage (total, neutrophils, eosinophils, lymphocytes)", "setting": "[3]", "result": "did not block immune cell infiltration significantly"}]}
{"molecule": "B2", "values": [{"measurement": "metabolic degradation (in vivo stability)", "setting": "[4]", "result": "improved metabolic degradation"}]}
{"molecule": "B3", "values": [{"measurement": "cell-cell interaction between human endothelial cells and human monocytic U937 cells", "setting": "[1]", "result": "inhibits cell-cell interaction"}]}
{"molecule": "B4", "values": [{"measurement": "cytokine levels (IL-4, IL-5, IL-13) in lung tissue", "setting": "[5]", "result": "decreased"}, {"measurement": "inhibition of U937 cell binding to Bst2 decoy coated cell culture plates", "setting": "[6]", "result": "concentration-dependent inhibition"}]}
